Measured values reported in PMC3273806.

Assays:
[1] = biological target: FLAG-tagged RAD18 expressed in human cells (human) (UniProt Q9NS91); assay: quantitative western blotting against a reference complex
[2] = biological target: human RAD18, wild type, His-tagged or FLAG-tagged (human) (UniProt Q9NS91); assay: quantitative SDS-PAGE
[3] = biological target: ^HisRAD18^ΔN1 (residues 113-495) (human) (UniProt Q9NS91); assay: quantitative SDS-PAGE
[4] = biological target: RAD18^ΔC1 (residues 1-341), His-tagged or FLAG-tagged (human) (UniProt Q9NS91); assay: quantitative SDS-PAGE
Sequence of RAD18^ΔC1 (residues 1-341), His-tagged or FLAG-tagged (human) (Q9NS91 1-341, stated change not applied): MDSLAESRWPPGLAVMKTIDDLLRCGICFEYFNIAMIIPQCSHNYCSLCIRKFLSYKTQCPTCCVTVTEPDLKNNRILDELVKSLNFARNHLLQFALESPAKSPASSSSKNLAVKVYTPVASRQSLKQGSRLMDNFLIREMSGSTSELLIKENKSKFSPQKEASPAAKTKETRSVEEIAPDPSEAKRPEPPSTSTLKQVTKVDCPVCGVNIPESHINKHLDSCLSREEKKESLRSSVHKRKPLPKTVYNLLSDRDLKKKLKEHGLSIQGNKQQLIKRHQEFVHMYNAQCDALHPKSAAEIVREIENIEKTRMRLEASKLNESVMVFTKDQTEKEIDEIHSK

[5] = biological target: untagged RAD18 expressed in human cells (human) (UniProt Q9NS91); assay: quantitative western blotting against a reference complex
Sequence of untagged RAD18 expressed in human cells (human) (Q9NS91 whole entry): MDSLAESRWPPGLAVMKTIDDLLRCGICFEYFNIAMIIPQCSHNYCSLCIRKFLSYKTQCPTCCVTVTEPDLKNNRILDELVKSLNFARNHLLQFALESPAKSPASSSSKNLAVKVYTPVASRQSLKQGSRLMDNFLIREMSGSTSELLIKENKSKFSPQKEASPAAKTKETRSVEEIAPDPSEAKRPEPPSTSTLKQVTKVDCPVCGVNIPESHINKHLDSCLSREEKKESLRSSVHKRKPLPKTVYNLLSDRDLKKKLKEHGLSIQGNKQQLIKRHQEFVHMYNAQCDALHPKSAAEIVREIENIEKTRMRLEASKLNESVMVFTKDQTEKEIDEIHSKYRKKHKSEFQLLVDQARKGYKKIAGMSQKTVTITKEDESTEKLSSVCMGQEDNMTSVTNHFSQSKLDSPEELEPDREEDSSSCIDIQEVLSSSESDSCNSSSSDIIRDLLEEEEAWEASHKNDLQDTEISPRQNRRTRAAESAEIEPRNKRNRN

Sequence of human RAD18, wild type, His-tagged or FLAG-tagged (Q9NS91 whole entry): as above
Sequence of untagged RAD18 expressed in human cells (Q9NS91 whole entry): as above
Sequence of FLAG-tagged RAD18 expressed in human cells (human) (Q9NS91 whole entry): as above
Sequence of human RAD18, wild type, His-tagged or FLAG-tagged (human) (Q9NS91 whole entry, the tested form may be a part): as the sequence (Q9NS91 whole entry) above
Sequence of FLAG-tagged RAD18 expressed in human cells (Q9NS91 whole entry): as above
Sequence of ^HisRAD18^ΔN1 (residues 113-495) (human) (Q9NS91 113-495, stated change not applied): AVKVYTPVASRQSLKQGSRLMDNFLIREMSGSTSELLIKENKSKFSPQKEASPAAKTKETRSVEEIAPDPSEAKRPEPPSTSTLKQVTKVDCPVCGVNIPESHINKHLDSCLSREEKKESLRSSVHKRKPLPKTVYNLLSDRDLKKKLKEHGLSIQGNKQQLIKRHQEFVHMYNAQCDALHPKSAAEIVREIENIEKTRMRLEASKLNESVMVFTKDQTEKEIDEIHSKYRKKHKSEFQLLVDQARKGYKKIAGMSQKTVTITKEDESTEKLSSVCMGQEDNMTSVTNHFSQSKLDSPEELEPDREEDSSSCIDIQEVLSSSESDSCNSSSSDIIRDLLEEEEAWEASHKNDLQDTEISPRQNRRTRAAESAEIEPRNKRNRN
Sequence of human RAD6A (P49459 whole entry): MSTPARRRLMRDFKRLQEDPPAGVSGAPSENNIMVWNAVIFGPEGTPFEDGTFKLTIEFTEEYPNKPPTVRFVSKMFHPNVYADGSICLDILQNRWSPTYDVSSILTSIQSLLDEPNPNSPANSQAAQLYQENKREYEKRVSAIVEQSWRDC
Sequence of FLAG-tagged human RAD6A (P49459 whole entry): as above
Sequence of untagged RAD6A expressed in human cells (P49459 whole entry): as above
Sequence of HA-tagged RAD6A expressed in human cells (P49459 whole entry): as above

HA-tagged RAD6A expressed in human cells (from UniProt P49459 1-152) (enzyme)
stoichiometry N (RAD6A per RAD18) [1]: 0.5

FLAG-tagged human RAD6A (from UniProt P49459 1-152) (enzyme)
stoichiometry N (RAD6A per RAD18) [2]: 0.5

human RAD6A (from UniProt P49459 1-152) (enzyme)
stoichiometry N (RAD6A per HisRAD18ΔN1) [3]: 1

human RAD18, wild type, His-tagged or FLAG-tagged (from UniProt Q9NS91 1-495) (enzyme)
stoichiometry N (FLAGRAD18 per HisRAD18ΔC1) [4]: 1 | ratio of HisRAD18 to FLAGRAD18 in the complex (HisRAD18 per FLAGRAD18) [2]: 1

FLAG-tagged RAD18 expressed in human cells (from UniProt Q9NS91 1-495) (enzyme)
stoichiometry N [1]: 2

untagged RAD18 expressed in human cells (from UniProt Q9NS91 1-495) (enzyme)
stoichiometry N [5]: 2

untagged RAD6A expressed in human cells (from UniProt P49459 1-152) (enzyme)
stoichiometry N (RAD6A per RAD18) [5]: 0.5
